{"source": "patent US20210309722A1", "target": "GLP-1 receptor", "assay": "cell-based or functional assay", "data": [{"substance": "native human GLP-1 (7-37) (from UniProt P01275 21-180) (peptide)", "values": [{"measurement": "EC50, cAMP production (cAMP-inducible luciferase reporter) in HEK293 cells expressing GLP1R", "result": 3.1, "unit": "pM"}]}]}
